The results in this text go back to the supplement of paper PMC7877785.

± gives the uncertainty stated by the source.

The nature of the data set: self-splicing fitness, log relative to wild type (ln ratio); higher = more splicing; Tetrahymena group I intron in knt gene, E. coli kanamycin selection, DiMSum; sequences stand for … in CUCUCU…GGAGGGAAAAGUUAUCAGGCAUGCACCUGGUAGCUAGUCUUUAAACCAAUAGAUUGCAUCGGUUUAAAAGGCAAGACCGUCAAAUUGCGGGAAAGGGGUCAACAGCCGUUCAGUACCAAGUCUCAGGGGAAACUUUGAGAUGGCCUUGCAAAGGGUAUGGUAAUAAGCUGACGGACAUGGUCCUAACCACGCAGCCAAGUCCUAAGUCAACAGAUCUUCUGUUGAUAUGGAUGCAGUUCACAGACUAAAUGUCGGUCGGGGAAGAUGUAUUCUUCUCAUAAGAUAUAGUCGGACCUCUCCUUAAUGGGAGCUAGCGGAUGAAGUGAUGCAACACUGGAGCCGCUGGGAACUAAUUUGUAUGCGAAAGUAUAUUGAUUAGUUUUGGAGUACUCGUGGUCG
The procedure, abridged:
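A randomised library covering all eight P1ex-region intron nucleotides was built with the intron in the knt kanamycin-resistance gene on pET-22b(+) and held in E. coli BL21(DE3). Cells were grown overnight at 37°C or 30°C on LB agar, with or without 25 μg/mL kanamycin, plus 100 μg/mL carbenicillin, 50 μM IPTG and 0.2% rhamnose, and pooled colonies were amplicon-sequenced on an Illumina HiSeq 2500. DiMSum fitness is the error-weighted combination of wild-type-normalised replicate fold changes, kanamycin versus none.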

In the case of CAAGAGCAAUAUUACGAGCG, the “self-splicing fitness (ln)” value was -0.536 ± 0.07 (30 °C) and -0.728 ± 0.073 (37 °C).

Take CUAGAGCAAUAUUACGAACG: the “self-splicing fitness (ln)” value is 0.208 ± 0.12 (30 °C) and 0.617 ± 0.14 (37 °C).

In the case of GUUUAGCAAUAUUACGAAGA, the “self-splicing fitness (ln)” value (37 °C) is -0.651 ± 0.34.

On to CUUCAGCAAUAUUACGCCUA, for which the “self-splicing fitness (ln)” value (37 °C) is -2.38 ± 0.32.

As to AUAGAGCAAUAUUACGUCGU, the “self-splicing fitness (ln)” value (30 °C) was -0.0699 ± 0.096 and the “self-splicing fitness (ln)” value (37 °C) is -0.158 ± 0.1.

For the sequence GGCAAGCAAUAUUACGCCGG, the “self-splicing fitness (ln)” value (30 °C) is -2.81 ± 0.3 and the “self-splicing fitness (ln)” value (37 °C) is -3.19 ± 0.22.

GUUCAGCAAUAUUACGGGUC: the “self-splicing fitness (ln)” value (30 °C) is -1.11 ± 0.11 and the “self-splicing fitness (ln)” value (37 °C) was -1.35 ± 0.12.

In the case of UCUCAGCAAUAUUACGGCAA, the “self-splicing fitness (ln)” value runs as follows: (30 °C) -2.86 ± 0.25; (37 °C) -2.44 ± 0.17.

AGCAAGCAAUAUUACGGCGU: the “self-splicing fitness (ln)” value runs as follows: (30 °C) -0.229 ± 0.078; (37 °C) 0.0744 ± 0.1.

For the sequence CCAGAGCAAUAUUACGGGAG, the “self-splicing fitness (ln)” value runs as follows: (30 °C) -3.51 ± 0.23; (37 °C) -3.55 ± 0.3.

Turning to GACAAGCAAUAUUACGGGAA, the “self-splicing fitness (ln)” value (30 °C) was -2.12 ± 0.097 and the “self-splicing fitness (ln)” value (37 °C) was -1.36 ± 0.12.

Regarding ACCCAGCAAUAUUACGUUCU, the “self-splicing fitness (ln)” value was -1.31 ± 0.062 (30 °C) and -1 ± 0.071 (37 °C).

Take AUUUAGCAAUAUUACGCAUA: the “self-splicing fitness (ln)” value reads like this: (30 °C) -2.26 ± 0.12; (37 °C) -1.18 ± 0.12.

As for GUCGAGCAAUAUUACGGGGC, the “self-splicing fitness (ln)” value (37 °C) is -1.57 ± 0.28.

For GACUAGCAAUAUUACGGAGU, the “self-splicing fitness (ln)” value is, setting by setting: (30 °C) -4.2 ± 0.25; (37 °C) -2.87 ± 0.21.

Take ACCGAGCAAUAUUACGCACU: the “self-splicing fitness (ln)” value is, setting by setting: (30 °C) -1.62 ± 0.14; (37 °C) -0.517 ± 0.13.

In the case of UCAGAGCAAUAUUACGCUAG, the “self-splicing fitness (ln)” value is -2.4 ± 0.12 (30 °C) and -2.95 ± 0.28 (37 °C).

As to AGUGAGCAAUAUUACGAGAU, the “self-splicing fitness (ln)” value by setting is: (30 °C) -3.9 ± 0.23; (37 °C) -1.49 ± 0.19.

Turning to GUGAAGCAAUAUUACGGGCG, the “self-splicing fitness (ln)” value reads like this: (30 °C) -0.39 ± 0.052; (37 °C) -0.217 ± 0.065.

Consider UCACAGCAAUAUUACGGAAG, for which the “self-splicing fitness (ln)” value by setting is: (30 °C) -3.85 ± 0.23; (37 °C) -2.3 ± 0.17.

UCUAAGCAAUAUUACGGGGA: the “self-splicing fitness (ln)” value by setting is: (30 °C) -1.76 ± 0.11; (37 °C) -0.821 ± 0.12.

With AUAAAGCAAUAUUACGCAGU, the “self-splicing fitness (ln)” value reads like this: (30 °C) -1.89 ± 0.11; (37 °C) -0.968 ± 0.096.

In the case of UGUCAGCAAUAUUACGCAGG, the “self-splicing fitness (ln)” value (30 °C) is -2.52 ± 0.2 and the “self-splicing fitness (ln)” value (37 °C) is -3.19 ± 0.26.

As to GCCGAGCAAUAUUACGGUCC, the “self-splicing fitness (ln)” value was -3.18 ± 0.29 (30 °C) and -1.23 ± 0.33 (37 °C).

Take UGACAGCAAUAUUACGUCCA: the “self-splicing fitness (ln)” value was -0.629 ± 0.061 (30 °C) and 0.245 ± 0.1 (37 °C).

With AAGAAGCAAUAUUACGCCGU, the “self-splicing fitness (ln)” value reads like this: (30 °C) -1.1 ± 0.13; (37 °C) -0.777 ± 0.15.

Consider GGUUAGCAAUAUUACGCGGG, for which the “self-splicing fitness (ln)” value reads like this: (30 °C) -3.71 ± 0.22; (37 °C) -1.23 ± 0.12.

With GCUAAGCAAUAUUACGAGUC, the “self-splicing fitness (ln)” value reads like this: (30 °C) -3.37 ± 0.21; (37 °C) -1.96 ± 0.22.

Take CUACAGCAAUAUUACGGAGU: the “self-splicing fitness (ln)” value is, setting by setting: (30 °C) -3.21 ± 0.13; (37 °C) -2.89 ± 0.16.

Regarding CCCAAGCAAUAUUACGGGCC, the “self-splicing fitness (ln)” value reads like this: (30 °C) -3.98 ± 0.22; (37 °C) -2.08 ± 0.19.

On to UCAAAGCAAUAUUACGCAAU, for which the “self-splicing fitness (ln)” value is, setting by setting: (30 °C) -5.01 ± 0.34; (37 °C) -2.79 ± 0.21.

Turning to AAGUAGCAAUAUUACGAACC, the “self-splicing fitness (ln)” value is -1.4 ± 0.36 (30 °C) and -1.57 ± 0.25 (37 °C).

On to AAUCAGCAAUAUUACGUACA, for which the “self-splicing fitness (ln)” value is, setting by setting: (30 °C) -0.484 ± 0.076; (37 °C) 0.13 ± 0.1.

Consider CAAGAGCAAUAUUACGGGCU, for which the “self-splicing fitness (ln)” value (37 °C) was -2.6 ± 0.34.

With UAGGAGCAAUAUUACGCUAG, the “self-splicing fitness (ln)” value (30 °C) was -3.03 ± 0.19 and the “self-splicing fitness (ln)” value (37 °C) was -0.83 ± 0.19.

For the sequence GUCGAGCAAUAUUACGAUAA, the “self-splicing fitness (ln)” value by setting is: (30 °C) -1.44 ± 0.26; (37 °C) -0.0833 ± 0.2.

Consider AGUGAGCAAUAUUACGUCAU, for which the “self-splicing fitness (ln)” value (30 °C) is -1.29 ± 0.14 and the “self-splicing fitness (ln)” value (37 °C) was -2.29 ± 0.22.

As for AAGUAGCAAUAUUACGAGCA, the “self-splicing fitness (ln)” value is, setting by setting: (30 °C) -1.52 ± 0.15; (37 °C) -0.816 ± 0.14.

As to GACAAGCAAUAUUACGUACC, the “self-splicing fitness (ln)” value (30 °C) was -1.71 ± 0.13 and the “self-splicing fitness (ln)” value (37 °C) is -1.11 ± 0.12.

For the sequence GAGUAGCAAUAUUACGUAAU, the “self-splicing fitness (ln)” value was -2.16 ± 0.13 (30 °C) and -2.38 ± 0.16 (37 °C).

Regarding AGACAGCAAUAUUACGCACU, the “self-splicing fitness (ln)” value (30 °C) is -0.646 ± 0.12 and the “self-splicing fitness (ln)” value (37 °C) is -0.203 ± 0.13.

In the case of UUUGAGCAAUAUUACGAUGC, the “self-splicing fitness (ln)” value (37 °C) was -1.81 ± 0.4.

As for CAUAAGCAAUAUUACGCGGG, the “self-splicing fitness (ln)” value by setting is: (30 °C) -1.6 ± 0.17; (37 °C) -2.18 ± 0.25.

Consider UUUUAGCAAUAUUACGCCCU, for which the “self-splicing fitness (ln)” value reads like this: (30 °C) -2.16 ± 0.35; (37 °C) -0.426 ± 0.28.

In the case of AAGAAGCAAUAUUACGAUUU, the “self-splicing fitness (ln)” value is, setting by setting: (30 °C) -0.181 ± 0.065; (37 °C) 0.764 ± 0.1.

With UCUAAGCAAUAUUACGAUGA, the “self-splicing fitness (ln)” value (30 °C) is -0.162 ± 0.058 and the “self-splicing fitness (ln)” value (37 °C) was determined as 0.0109 ± 0.072.

Regarding GUCGAGCAAUAUUACGGGAA, the “self-splicing fitness (ln)” value was -2.39 ± 0.34 (30 °C) and -1.63 ± 0.37 (37 °C).

AUGAAGCAAUAUUACGUCAG: the “self-splicing fitness (ln)” value was -0.198 ± 0.057 (30 °C) and 0.134 ± 0.073 (37 °C).

Turning to UCACAGCAAUAUUACGUAAC, the “self-splicing fitness (ln)” value runs as follows: (30 °C) -3.69 ± 0.12; (37 °C) -2.79 ± 0.14.

As to AAAGAGCAAUAUUACGGGAC, the “self-splicing fitness (ln)” value is -3.56 ± 0.38 (30 °C) and -1.96 ± 0.22 (37 °C).

Turning to UUCAAGCAAUAUUACGCACU, the “self-splicing fitness (ln)” value is, setting by setting: (30 °C) 0.0955 ± 0.12; (37 °C) -0.66 ± 0.14.

Turning to UAGAAGCAAUAUUACGGUGG, the “self-splicing fitness (ln)” value (30 °C) is -1.84 ± 0.12 and the “self-splicing fitness (ln)” value (37 °C) is -1.2 ± 0.13.

Turning to UUCUAGCAAUAUUACGUGAG, the “self-splicing fitness (ln)” value is -0.386 ± 0.06 (30 °C) and -0.345 ± 0.11 (37 °C).

Take CAAUAGCAAUAUUACGACCG: the “self-splicing fitness (ln)” value was -0.173 ± 0.12 (30 °C) and 0.201 ± 0.18 (37 °C).

As for CCAUAGCAAUAUUACGGGCU, the “self-splicing fitness (ln)” value reads like this: (30 °C) -3.65 ± 0.27; (37 °C) -2.19 ± 0.19.

Regarding AGUCAGCAAUAUUACGAUAA, the “self-splicing fitness (ln)” value was -0.337 ± 0.087 (30 °C) and -0.697 ± 0.1 (37 °C).

Turning to UCUUAGCAAUAUUACGUUCC, the “self-splicing fitness (ln)” value (30 °C) was -3.4 ± 0.3.

Turning to AAAUAGCAAUAUUACGGUAG, the “self-splicing fitness (ln)” value (30 °C) was -3.63 ± 0.22 and the “self-splicing fitness (ln)” value (37 °C) is -2.62 ± 0.23.

As to GGUCAGCAAUAUUACGGUAA, the “self-splicing fitness (ln)” value is, setting by setting: (30 °C) -0.874 ± 0.071; (37 °C) -0.111 ± 0.069.

For GUGCAGCAAUAUUACGGGCG, the “self-splicing fitness (ln)” value reads like this: (30 °C) -1.82 ± 0.092; (37 °C) -0.512 ± 0.11.

Turning to AUGAAGCAAUAUUACGACUA, the “self-splicing fitness (ln)” value is 0.0947 ± 0.059 (30 °C) and -0.133 ± 0.059 (37 °C).

GAAUAGCAAUAUUACGUAAU: the “self-splicing fitness (ln)” value was -2.99 ± 0.13 (30 °C) and -0.789 ± 0.11 (37 °C).
